From publication PMC5290276, “A quantized mechanism for activation of pannexin channels” (Nature Communications, 2017)

Key:
[1] = molecular target: 2(1CT)-GFP, GFP-tagged tandem dimer linking a full-length PANX1 subunit to a C-terminally truncated PANX1 subunit (human) (UniProt Q96RD7); experiment: single-molecule photobleaching (TIRF microscopy), subunit counting; GFP-tagged concatemers in the plasma membrane of HEK293T cells 5-7 h after transfection; photobleaching steps fitted by binomial distributions assuming ~65% of GFP is fluorescent
[2] = molecular target: 3(2CT)-GFP, GFP-tagged trimeric concatemer of two full-length PANX1 subunits and a C-terminally truncated PANX1 subunit (human) (UniProt Q96RD7); experiment: cross-linking; HEK293T cells surface-biotinylated (Sulfo-NHS-LC-Biotin, 4 °C, 30 min), then cross-linked with 1.8 mM disuccinimidyl suberate at 4 °C for 1 h; streptavidin precipitation and western blot; not quantitative according to the paper
[3] = molecular target: 3(2CT)-GFP, GFP-tagged trimeric concatemer of two full-length PANX1 subunits and a C-terminally truncated PANX1 subunit (human) (UniProt Q96RD7); experiment: single-molecule photobleaching (TIRF microscopy), subunit counting; GFP-tagged concatemers in the plasma membrane of HEK293T cells 5-7 h after transfection; photobleaching steps fitted by binomial distributions assuming ~65% of GFP is fluorescent
[4] = molecular target: caspase 3-cleaved PANX1 (C-terminally cleaved human PANX1) (human); experiment: SEC; purified PANX1 in amphipol A8-35 on an SRT-C 300 column (Sepax); oligomer size judged from the elution volume
[5] = molecular target: the molecule itself; experiment: as above

2(1CT)-GFP, GFP-tagged tandem dimer linking a full-length PANX1 subunit to a C-terminally truncated PANX1 subunit (from UniProt Q96RD7 1-426)
stoichiometry N [1]: 3

3(2CT)-GFP, GFP-tagged trimeric concatemer of two full-length PANX1 subunits and a C-terminally truncated PANX1 subunit (from UniProt Q96RD7 1-426; Q96RD7 1-426)
stoichiometry N [2]: 2
stoichiometry N [3]: 2

caspase 3-cleaved PANX1 (C-terminally cleaved human PANX1) (domain or fragment)
stoichiometry N [4]: 6

B1: full-length human PANX1 (Pannexin 1) with a C-terminal enterokinase cleavage site and hexahistidine tag (natural protein, UniProt Q96RD7-1 1-426, looked up)
chain: MAIAQLATEYVFSDFLLKEPTEPKFKGLRLELAVDKMVTCIAVGLPLLLISLAFAQEISIGTQISCFSPSSFSWRQAAFVDSYCWAAVQQKNSLQSESGNLPLWLHKFFPYILLLFAILLYLPPLFWRFAAAPHICSDLKFIMEELDKVYNRAIKAAKSARDLDMRDGACSVPGVTENLGQSLWEVSESHFKYPIVEQYLKTKKNSNNLIIKYISCRLLTLIIILLACIYLGYYFSLSSLSDEFVCSIKSGILRNDSTVPDQFQCKLIAVGIFQLLSVINLVVYVLLAPVVVYTLFVPFRQKTDVLKVYEILPTFDVLHFKSEGYNDLSLYNLFLEENISEVKSYKCLKVLENIKSSGQGIDPMLLLTNLGMIKMDVVDGKTPMSAEMREEQGNQTAELQGMNIDSETKANNGEKNARQRLLDSSC
notes: Pannexin 1 (PANX1), human, NM_015368, isoform 1, 426 a.a., full length; No removal of the tag by enterokinase is described; The purified protein was probed with anti-pentaHis in a purity western; also called full-length PANX1; source: Sf9 (baculovirus), purified from membranes (TALON cobalt resin, amphipol A8-35 exchange, SEC)
stoichiometry N [5]: 6
